Source: patent publication US20250019449A1 (Memorial Sloan Kettering, published 2025)

Key:
[1] = target: T1, human CCR8 (human, UniProt P51685 1-355); assay: cell-based or functional assay
[2] = target: T1, human CCR8; assay: cell-based or functional assay; remark: listed apart in the source
[3] = target: T1, human CCR8; assay: flow cytometry on mammalian cells expressing human CCR8

T1 sequence (P51685 whole entry): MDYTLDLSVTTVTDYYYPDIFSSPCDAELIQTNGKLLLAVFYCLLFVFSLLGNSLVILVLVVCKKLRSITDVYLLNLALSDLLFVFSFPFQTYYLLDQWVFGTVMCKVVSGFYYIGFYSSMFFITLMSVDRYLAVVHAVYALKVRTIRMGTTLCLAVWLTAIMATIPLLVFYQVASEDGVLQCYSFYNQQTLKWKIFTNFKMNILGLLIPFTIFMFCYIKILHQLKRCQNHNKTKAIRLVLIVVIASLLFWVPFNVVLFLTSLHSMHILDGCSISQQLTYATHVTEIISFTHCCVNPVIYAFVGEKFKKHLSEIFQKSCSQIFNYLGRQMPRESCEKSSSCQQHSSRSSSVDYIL

| IC50 antagonism of EC80 Human CCL1 Gα15/16 Biosensor [1] | IC50 antagonism of EC80 Human CCL1 Gαz Biosensor [1] | EC50 of hCCR8-specific internalization [2] | MFI Fold over Background [3] | Binder |
| --- | --- | --- | --- | --- |
| 29.8 nM | 18.9 nM |  |  | ADI-40306 (antibody, V domains shown) VH: QVQLVESGGGVVQPGRSLRLSCAASGFTFSSYGMHWVRQAPGKGLEWVAVISYDGSNKYYAFSVKGRFTISRDNSKNTLYLQMNSLRVEDTAVYYCARVRRIAGRAGYGMDVWGQGTTVTVSS VL: not shown |
| 4.61 nM | 5.46 nM | 14.3 µg/mL |  | ADI-40327 (antibody, V domains shown) VH: QVQLQESGPGLVKPSETLSLTCAVSGYSISSGYYWGWIRQPPGKGLEWIGSIYHSGNTYYRPSLKSRVTISVDTSKNQFSLKLSSVTAADTAVYYCARGKGGSWTAFGPWGQGTLVTVSS VL: DIQMTQSPSSLSASVGDRVTITCRASQSISSFLNWYQQKPGKAPKLLISAASSLQSGVPSRFSGSGSGTDFTLTISSLQPEDFATYYCQQGHSTPPTFGGGTKVEIK |
|  |  |  | 336 fold over background | ADI-35281 (antibody, V domains shown, Produced as IgG) VH: EVKLEQSGGGLVQPKGSLKLSCVASGFTFNAYAMNWVRQAPGQGLEWVARIRSKSNNYATYYAASVKDRFTISRDDSQSILYLQMNNLKTEDTAMYYCVRQSYGNSNYAMDYWGQGTTVTVSS VL: DIQLTQSPPSVPVTPGESVSISCRSSKSLLHSNGNTYLYWFLQRPGQSPQLLIYRKSNLASGVPDRFSGSGSGTAFTLRISRVEAEDVGVYYCMQHLEYPFTFGGGTKLEIK |
| 0.439 nM | 2.39 nM | 5.7 µg/mL |  | ADI-40352 (antibody, V domains shown) VH: QLQLQESGPGLVKPSETLSLTCTVSGGSISSSSYAWGWIRQPPGKRLEWIGSIYYTGSTYYNPSLKSRVTISVDTSKNQFSLKLSSVTAADTAVYYCLRGHRRDYIAFDIWGQGTMVTVSS VL: DIQMTQSPSSLSASVGDRVTITCRASQSISSYLNWYQQKPGKAPKLLIYAASSLQSGVPSRFSGSGSGTDFTLTISSLQPEDFATYYCQQSHNLPTFGGGTKVEIK |
| 1.78 nM | 1.14 nM | 2.8 µg/mL |  | ADI-40360 (antibody, V domains shown) VH: QLQLQESGPGLVKPSETLSLTCTVSGGSISSSSYAWGWIRQPPGKRLEWIGSIYYTGSTYYNPSLKSRVTISVDTSKNQFSLKLSSVTAADTAVYYCVRGHRRDYIAFDIWGQGTMVTVSS VL: DIQMTQSPSSLSASVGDRVTITCRASQSISSYLNWYQQKPGKAPKLLIYAASSLQSGVPSRFSGSGSGTDFTLTISSLQPEDFATYYCQQSHNLPTFGGGTKVEIK |
| 1.26 nM | 1.79 nM |  |  | ADI-46663 (antibody, V domains shown) VH: EVQLVESGGGLVQPGGSLRLSCAASGFTFNAYAMNWVRQAPGKGLEWVARIRSKSNNYATYYADSVKDRFTISRDDSKNSLYLQMNSLKTEDTAVYYCVRQSYGNSNYAMDYWGQGTTVTVSS VL: DIVMTQSPLSLPVTPGEPASISCRSSKSLLHSNGNTYLYWYLQKPGQSPQLLIYRMSNLASGVPDRFSGSGSGTDFTLKISRVEAEDVGVYYCMQHLEYPFTFGGGTKVEIK |
